The results in this text go back to PMC4330346, “Function of the N-terminal segment of the RecA-dependent nuclease Ref” (Nucleic Acids Research, 2015).

In series [1] the target is ϕW39 R11C Ref (bacteriophage ϕW39). The experiment in a line: non-reducing SDS-PAGE; Ref dialysed free of DTT; 6.5 μg Ref, 50 mM sodium phosphate pH 7.5, 75 mM sodium chloride, no DTT; non-reducing cracking buffer, 4–15% gradient SDS-PAGE; the dimer is taken as disulfide-linked; 10 mM DTT substantially reduced the dimers of P1 WT Ref and ϕW39 R11C.
Series [2] has the same target. The experiment in a line: cross-linking; non-specific cross-linker disuccinimidyl glutarate (DSG) to trap the oligomeric states of Ref (Supplementary Figure S2).
For a further series, the target named is T1, phiW39 WT Ref (bacteriophage phiW39, I8L;C11R;K13E;V34A;T46S;L47I;R86T;A93T;N107E;A115S).
T1 sequence: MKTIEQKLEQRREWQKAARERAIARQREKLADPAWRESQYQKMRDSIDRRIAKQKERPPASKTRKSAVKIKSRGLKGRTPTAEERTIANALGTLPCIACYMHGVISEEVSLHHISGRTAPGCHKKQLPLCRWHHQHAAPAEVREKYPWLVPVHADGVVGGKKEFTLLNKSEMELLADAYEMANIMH
The experiment in a line: fluorescence polarization; apparent Kd; 25 mM Tris-acetate pH 8.5, 3 mM potassium glutamate, 15 mM magnesium acetate, 5% w/v glycerol, 2 nM DNA, Ref 0.5-10000 nM, 15 min at room temperature, read at 25 C; one-site fit with Hill coefficient. The note with it: protein: recombinant, tags: none (native form). On the technique in general: In fluorescence polarisation assays a small probe gives low polarisation when free and higher when bound to something large.

Another series concerns the target T2, phiW39 deltaN74 Ref (bacteriophage phiW39, R86T;A93T;N107E;A115S).
T2 sequence: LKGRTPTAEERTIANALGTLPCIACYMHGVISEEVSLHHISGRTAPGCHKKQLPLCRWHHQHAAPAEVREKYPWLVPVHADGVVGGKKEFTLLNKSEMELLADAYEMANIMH
Nature of the series: fluorescence polarization; 25 mM Tris-acetate pH 8.5, 3 mM potassium glutamate, 15 mM magnesium acetate, 5% w/v glycerol, 2 nM DNA, Ref 0.5-10000 nM, 15 min at room temperature, read at 25 C; one-site fit with Hill coefficient. Conditions: protein: recombinant, tags: none (native form).

The target in a further series is T3, P1 deltaN76 Ref (bacteriophage P1, UniProt P35926 77-186, del1-76).
T3 sequence: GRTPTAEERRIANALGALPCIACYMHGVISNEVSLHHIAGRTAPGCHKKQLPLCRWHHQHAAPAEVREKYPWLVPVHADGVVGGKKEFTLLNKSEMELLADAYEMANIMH
Described as above. Conditions: protein: recombinant, tags: none (native form).

Another series has as its target T4, phiW39 deltaN59 Ref (bacteriophage phiW39, R86T;A93T;N107E;A115S).
T4 sequence: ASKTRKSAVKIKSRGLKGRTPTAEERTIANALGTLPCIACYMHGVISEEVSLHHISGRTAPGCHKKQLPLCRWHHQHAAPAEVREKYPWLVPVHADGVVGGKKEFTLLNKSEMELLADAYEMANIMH
Nature of the series: fluorescence polarization; Kd value only in Figure 2C; 25 mM Tris-acetate pH 8.5, 3 mM potassium glutamate, 15 mM magnesium acetate, 5% w/v glycerol, 2 nM DNA, Ref 0.5-10000 nM, 15 min at room temperature, read at 25 C; one-site fit with Hill coefficient. The note with it: protein: recombinant; tags: none (native form); label: 5' 6-FAM; single strand.

Series [3] concerns the molecule itself. Nature of the series: AUC; preliminary ultracentrifugation, unpublished data; conditions not given.
Where [4] appears, read: label: 5' 6-FAM on strand 1, blunt.

Substitutions are numbered along the chain they refer to.

Turning to ϕW39 R11C Ref (enzyme), the stoichiometry N in series [1] and in series [2] was 2 in each case.

B1: AJM25 71mer ssDNA (ssDNA)
DNA: CAGAAGTAAGTTGGCCGCAGTGTTATCACTCATGGTTATGGCAGCACTGCATAATTCTCTTACTGTCATGC
On to B1, for which the Kd with phiW39 WT Ref (label: 5' 6-FAM, single strand) was 28 ± 2 nM. Moreover, the binding result with phiW39 deltaN74 Ref (label: 5' 6-FAM, single strand) is on record as “no binding”; in the series with P1 deltaN76 Ref (label: 5' 6-FAM, single strand) it was “no binding”. Besides, the binding signal with phiW39 deltaN59 Ref was ~40 fold reduction in affinity.

B2: AJM25/AJG52 71 bp dsDNA (dsDNA)
DNA 1: B1 DNA
DNA 2: GCATGACAGTAAGAGAATTATGCAGTGCTGCCATAACCATGAGTGATAACACTGCGGCCAACTTACTTCTG
With B2, the Kd with phiW39 WT Ref (setting [4]) was 24 ± 1 nM. Besides, the binding result in the series with phiW39 deltaN74 Ref (setting [4]) and with P1 deltaN76 Ref (setting [4]) was “no binding” in each case.

B3: bacteriophage P1 Ref (recombination enhancement function) protein, wild type (enzyme, UniProt P35926 1-186, looked up)
chain: T1 sequence with L8I, R11C, E13K, A34V, S46T, I47L, T86R, T93A, E107N, S115A
notes: has Cys11; Purified in native form (no tag)
In the case of B3, the “stoichiometry N” value in series [3] was 2.

One may read the stoichiometry N as a count of units in the complex or per binding partner.
